Experimental findings from article PMC2822101 (Journal of molecular biology, 2009) are described below.

B1: DnaJ (natural protein, UniProt P08622 1-376, looked up)
chain: MAKQDYYEILGVSKTAEEREIRKAYKRLAMKYHPDRNQGDKEAEAKFKEIKEAYEVLTDSQKRAAYDQYGHAAFEQGGMGGGGFGGGADFSDIFGDVFGDIFGGGRGRQRAARGADLRYNMELTLEEAVRGVTKEIRIPTLEECDVCHGSGAKPGTQPQTCPTCHGSGQVQMRQGFFAVQQTCPHCQGRGTLIKDPCNKCHGHGRVERSKTLSVKIPAGVDTGDRIRLAGEGEAGEHGAPAGDLYVQVQVKQHPIFEREGNNLYCEVPINFAMAALGGEIEVPTLDGRVKLKVPGETQTGKLFRMRGKGVKSVRGGAQGDLLCRVVVETPVGLNERQKQLLQELQESFGGPTGEHNSPRSKSFFDGVKKFFDDLTR
B2: aggregated glucose-6-phosphate dehydrogenase (G6PDH) from Leuconostoc mesenteroides (enzyme, UniProt P11411 1-486, looked up)
chain: MVSEIKTLVTFFGGTGDLAKRKLYPSVFNLYKKGYLQKHFAIVGTARQALNDDEFKQLVRDSIKDFTDDQAQAEAFIEHFSYRAHDVTDAASYAVLKEAIEEAADKFDIDGNRIFYMSVAPRFFGTIAKYLKSEGLLADTGYNRLMIEKPFGTSYDTAAELQNDLENAFDDNQLFRIDHYLGKEMVQNIAALRFGNPIFDAAWNKDYIKNVQVTLSEVLGVEERAGYYDTAGALLDMIQNHTMQIVGWLAMEKPESFTDKDIRAAKNAAFNALKIYDEAEVNKYFVRAQYGAGDSADFKPYLEELDVPADSKNNTFIAGELQFDLPRWEGVPFYVRSGKRLAAKQTRVDIVFKAGTFNFGSEQEAQEAVLSIIIDPKGAIELKLNAKSVEDAFNTRTIDLGWTVSDEDKKNTPEPYERMIHDTMNGDGSNFADWNGVSIAWKFVDAISAVYTADKAPLETYKSGSMGPEASDKLLAANGDAWVFKG

What all share (assay): retention with aggregates on a 0.1-μm filter, SDS-PAGE
The target in experiment [1] is B2.
A further experiment deals with ClpB95(E279Q/E678Q) (E. coli, UniProt P63284 1-857, E279Q | E678Q).
The target in the next experiment is DnaK (UniProt P0A6Y8 1-638).

In the case of B1, the binding result in experiment [1] is reported as “binds”.

With B2, the binding result with ClpB95(E279Q/E678Q) and with DnaK was “binds” throughout.
